target: T1, CodY-6His (Listeria monocytogenes) (UniProt A0A0H3GGF1); assay: EMSA; conditions: EMSA: 20 mM Tris-Cl pH 8, 50 mM KCl, 2 mM MgCl2, 0.5 mM EDTA, 1 mM DTT, 0.05% NP-40, 5% glycerol, 25 ug/ml salmon sperm DNA, 4 ng DIG-DNA, 15 min room …
T1 sequence: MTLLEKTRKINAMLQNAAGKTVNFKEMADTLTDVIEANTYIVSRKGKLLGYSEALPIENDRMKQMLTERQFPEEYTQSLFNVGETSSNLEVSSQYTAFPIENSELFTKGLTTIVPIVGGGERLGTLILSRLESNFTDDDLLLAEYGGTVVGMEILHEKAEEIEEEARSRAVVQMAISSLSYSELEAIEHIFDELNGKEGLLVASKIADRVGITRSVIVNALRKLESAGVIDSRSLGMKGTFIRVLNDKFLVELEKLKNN

Row | Substance | Kd
1 | GAAGAAGTGAAGACGTACCTCATTCTTTAGAGAGCATTTACTGGTGAGTAAACGTATTTAAAGAGTGGAGCGTTTTTATTTTTGAATGTTTTAATTTTATTAGTTAGGGTAAAATCGACAGTATACTTAAAATTAGATGGGGTGAAGTGATGAATATTAGTATAGAAATAAAAGAACGTGATACTGACCACATAGACATATTTGTTGCTGGGGAGATCGATGCTTATACAGCGCCAAAGGTAAAAGAAGCATTAGAAGTATATCAAGTTAAAGAGGG (double strand) [rsbV-sigB (LMRG_02317) upstream probe] | 0.151 µM
2 | GTTAATTGCCTCCATTAATATACATATTATAGTTACCATTTTACTATAAAAAAGAACAACTTGACAGAAAAAAAGTGATTAAAAACAGCTCCAGCACTTATTTCCGTGTATCAATACAGAGGTAAAAAGGCATGCCACTTAGGCAAAAGACGGCTATGCTCTTAAGAAATTTTTTTGCTGTTATACCCTACTATTTTGCTATTCTAACAGCAATTTCAAAAAAACACTTCATATTAAGGTCTGTTCGTGATAAAATGAACATAGTTGATAATGATTATCATGTTCATTACATAACATAAAAGGAGGCCTGCTAGCTTATGCAATTAAATGAAACTGCTGTCGGTGAAAAAGTTCGCATCTCAGAATTAAAAATTGAGAACGCTATGCTTAAACGTCGCTTACTTGCACTTGGTTGCGATGAAGGTTGTGATATTTGTATCAAACAAAAAGGACTATTTGGTG (double strand) [feoA (LMRG_01257) upstream probe] | 0.09 µM
3 | AACCGTCACTTGTGGCGGTTTTTTTGTGTTTTCATCTTTGTGAATTAATTTTGATTTCTTTTAAAATTGGTTATAACTCTCGCGAATTGGGGTAAAAGTAAAGAGGCAGATGAAGATACATTGTGAAAAATTGATATGATAGGACAAGTCGTTTGATTGACAGCGTTTTCTTGATATGATTAAATAGACTCAAGTTAATTAACATGTCAGGAGAAGAGATGACAATCGAAACGATGCAAGGGTACTAGTGTGCCTACGTTTTGATTGTCATTCTTTTTTTGAAGTTAATTGATAATCGGAATGTAAGGGGACTAGTAAGTGTTAAAATTCCGGTGCTACAAATAAGCAAGAAGAAGGAGTTGGAAAAGATGATTGACACAAGTTTAGCAACACAATTTCTAGGTGAAGTCATTGGTACGGCTATACTAATTATTTTAGGTGCTGGTGTCGTAGCAGGTGTTTCACTGAAAAGATCCAAAGCAGAGAATG (double strand) [glpF (LMRG_01431) upstream probe] | 0.114 µM
4 | CATTAAATCCTCCCTCTTCCCATTATTACCTTTCAATATCCTTAATGGACATTTAACATCTATATACAATACACCCATTTTTTTTAAAGTGCAAGAGTTTTTTACTAAAAATGGAAAAAAATTTAATGAATGCGTTTGCTGCGAATAGAACAACTATAAGCATTGTCTCAAAAATTTTTCCTGGCTAAGAAAAAAACTGGAATAATTTTCGAAAACAAACGTGCTAATCTTATACATGTTCCAACAAACAATTACTTAGGAGGTGCTTTTCTCGTGTTAACTGATGATGTTCCAAAAAAATCACATTTACCATTAATTAAGCATCATTCTAATTACTTATAGCTTCGTTTAGTTGTATTTTCGCAAACAAAAAATTGGGAGGTAACATACAATGTCTAAACAAGCAAAGTCTTTAACCTTATTCGGATTTTTCGCCATCACGGCTTCCATGGTTATGACCGTTTATGAATATCCAACATTTGCCACTTCCG (double strand) [gadC-gadG (LMRG_01480) upstream probe] | 0.025 µM
5 | ATTCGCTCAACTCCTTCAATATAACTTCAATAACAAGTATAGCAGTTTTATGAACAGGAACCAATTTATTACTATTTGAAATGATTATTTTTATTTAGAAATGTATTTTTAAGCATAATTATGAATAAATGAAAATAAAAAGGTTGATATCTAAAAGCATCGATGTTAATATAAATACAAATGTTTGTATATTTATGAATAGGGGATGTTTAAAATGGCGAAAGAAAAAATCGTATTAGCTTACTCAGGTGGGTTAGATACTTCTGTGGCAATTCAGTGGTTAGTAGAATCAGGTTATGAAGTTATTGCATGTT (double strand) [argG (LMRG_01241) upstream probe] | 0.07 µM
6 | fliN (LMRG_02874) upstream probe | 0.026 µM
7 | ATTCAACCCTCTTTCAAAATTCTTTTTCCCAAGTGCTTTAAATGGTACACTAATTATACCATAAGCAACTATTTTTCTATTCATTATTTACAAAAACGCTTTAACGTGCTAATATGCTAATAAACTAAAATATCGTAAAGGAGCTAACCAGATGAACTTAAATAAGAACTTACCAACTGGAACACGTGATAAACTTTTTCGTGAAGCACGAGCTGCATACAAAATTGAGCAACAAGTGAATCATTATTTT (double strand) [hisZ (LMRG_00251) upstream probe] | 0.15 µM
8 | AAAAGTAACATTTATTTTTCAGAAAAAATTTTTTAATTTTTACCGCGATGGATTCATTCGCGGTTTTTTTGTATGTAATGCATTGGTATATAAGGCTTTATCTATAATGTTAGATTATCTAACATAAATTTGACAAAACATCTAACGTACATTATAATGCTACTATCATCAAAAAAATAATTATGTTTTGAGGGGGAATTGTCGTGAGCGAAAAGGAAATCCGGAGATCGATGCCGCTTTTTCCAATTGGGCCTGTGATGAAGCTAACTGATCTCACTGCTAGACAAATTCGCTACTATG (double strand) [glnR upstream probe] | 0.074 µM
9 | CTTCTATATCTACTCATTAAAACCTAAGCAAACGTTCTCATTAACTACATTTTAAAAAATTTCAGAAAAATTGGTTTTTATGCTTGAAAATATTCTCAACAATGTGTAAACTAACAACATAGGTAAGAAAAGTTGACCAAATTTCAGAAAAATTTACTTAACGCACACAAGCCAATGTTTTTCTTCTTTATAACATTGCATGTATTTGCGTCAGGTTTTCTACTTTTCCTTATAGTCAAAATATTTAAACAAGGAGCGATTATAGTATGGCACAAACATCCACTATCCAAAACGACACAAAGGCAGCCGAAGAATACGCAGCTCGAGTGTTTGAAACAATTAAACAACGGAATCCTGGCGAAACGGAATTCCACCAAGCAGTTGAAGAATTCTTAAACTCTGTTATCCCAGCCCTTGCAAAAGAACCTAAATACGAAGCAAATGGCATTTTAGAACAGTTAACAGAACCCGAACGCCTTATCAGTTTCCGAGTTCCATGGGTGGATGATTCTGGCA (double strand) [gdhA (LMRG_00242) upstream probe] | 0.057 µM
10 | TTAACAAATGTTAGAGAAAAATTAATTCTCCAAGTGATATTCTTAAAATAATTCATGAATATTTTTTCTTATATTAGCTAATTAAGAAGATAATTAACTGCTAATCCAATTTTTAACGGAATAAATTAGTGAAAATGAAGGCCGAATTTTCCTTGTTCTAAAAAGGTTGTATTAGCGTATCACGAGGAGGGAGTATAAGTGGGATTAAATAGATTTATGCGTGCGATGATGGTAGTTTTCATTACTGCCAACTGCATTACGATTAACCCCGACATAATATTTGCAGCGACAGATA (double strand) [actA (LMRG_02626) upstream probe] | 0.208 µM
11 | glnR upstream probe | 0.074 µM
12 | TATAATTCTCCTTTAATAGTTTAATGTTGGTTAAACTAGCTGAAGGATTGAAGAGTTTATTTCACTCTTACTTTCTAAACAATCCTAAAGCCATTGTTAGAAAGTCGAGAGCAGTGCAATTTTGTTTGCATCTCTTTGATCACCACCTTGCCTTCATTATAAGCACTTCTGAATTGTTCGTCAATTCTCTTTTATGAATACTCTTCTAAAAACAGGGTAAACGAAAACTATTGGACATTAGAGAAAACATCCATGGGAGGAGAAAGTAAAATGAAAAAAGTAAAAGCAAGTGAAACACTCGTACAAACATTAAAAAATTGGGGTATCGACCACGTATATGGCTTGCCCGGCGATTCGATTGACACCGTAGTTGACGCTTTACGAAAAGAAC (double strand) [poxB (LMRG_00411) upstream probe] | 0.055 µM
